These results are taken from patent publication US20180362668A1 (JIANGSU ALPHAMAB BIOPHARMACEUTICALS, published 2018).

Series [1] concerns the molecule itself. Nature of the series: non-reducing SDS-PAGE densitometry of Protein A-purified co-transfection product; chain A:chain B vectors 1:4. The source says:
(§1) The cotransfection ratio of recombinant expression vector of the chain A to that of the chain B was 4:1, 1:1 and 1:4. The transiently expressed culture supernatant was collected after 5-6 days of cultivation.

Series [2] concerns the molecule itself. Kind of series: non-reducing SDS-PAGE densitometry of Protein A-purified co-transfection product; chain A:chain B vectors 4:1.
Description: as §1

Series [3] deals with the molecule itself. Kind of series: non-reducing SDS-PAGE densitometry of Protein A-purified co-transfection product; chain A:chain B vectors 1:1.
Description: as §1

Series [4] concerns the molecule itself. Nature of the series: non-reducing SDS-PAGE densitometry of Protein A-purified co-transfection product; chain A:chain B vectors 4:1. The source says: (§2) The cotransfection ratio of recombinant expression vector of the chain A to that of the chain B was 4:1, 1:1 and 1:4.
This is another data set of the same source.

Series [5] deals with the molecule itself. Kind of series: non-reducing SDS-PAGE densitometry of Protein A-purified co-transfection product; chain A:chain B vectors 1:4.
Description: as §2
The source holds these as a separate data set.

Series [6] concerns the molecule itself. Nature of the series: non-reducing SDS-PAGE densitometry of Protein A-purified co-transfection product; chain A:chain B vectors 1:1.
Description: as §2
The source holds these as a separate data set.

Series [7] deals with the molecule itself. Nature of the series: non-reducing SDS-PAGE of Protein A-purified co-transfection product; chain A:chain B vectors 4:1. The source says: (§3) The respective transient transfection products were obtained through Protein A affinity chromatography.
Series [8] concerns the molecule itself. Kind of series: non-reducing SDS-PAGE of Protein A-purified co-transfection product; chain A:chain B vectors 1:4.
Description: as §3

Series [9] deals with the molecule itself. Kind of series: non-reducing SDS-PAGE densitometry of Protein A-purified co-transfection product; chain A:chain B vectors 1:1. The source holds these as a separate data set.

B1: VhH-Fc fusion protein chain B with T366S + L368G + Y407A + K409A (Fc fusion)
chain: QVQLQESGGGSVQAGGSLRLSCAASEYIYSSYCMAWFRQAPGKEREGVAVIGSDGSTSYADSVKGRFTISKDNAKNTLYLQMNSLKPEDTAMYYCAAIGGYCYQPPYEYQYWGQGTQVTVSSEPKSSDKTHTCPPCPAPELLGGPSVFLFPPKPKDTLMISRTPEVTCVVVDVSHEDPEVKFNWYVDGVEVHNAKTKPREEQYNSTYRVVSVLTVLHQDWLNGKEYKCKVSNKALPAPIEKTISKAKGQPREPQVYTLPPSRDELTKNQVSLSCGVKGFYPSDIAVEWESNGQPENNYKTTPPVLDSDGSFFLASALTVDKSRWQQGNVFSCSVMHEALHNHYTQKSLSLSPGK
notes: Positions are EU index; also called combination 16 chain B
As for B1, the “VhH-Fc homodimer (%)” value in series [1] was 4%; in [2], under 1%; in series [3] it was 7%.

B2: VhH-Fc fusion protein chain B with T366S + L368G + Y407A + F405K (Fc fusion)
chain: QVQLQESGGGSVQAGGSLRLSCAASEYIYSSYCMAWFRQAPGKEREGVAVIGSDGSTSYADSVKGRFTISKDNAKNTLYLQMNSLKPEDTAMYYCAAIGGYCYQPPYEYQYWGQGTQVTVSSEPKSSDKTHTCPPCPAPELLGGPSVFLFPPKPKDTLMISRTPEVTCVVVDVSHEDPEVKFNWYVDGVEVHNAKTKPREEQYNSTYRVVSVLTVLHQDWLNGKEYKCKVSNKALPAPIEKTISKAKGQPREPQVYTLPPSRDELTKNQVSLSCGVKGFYPSDIAVEWESNGQPENNYKTTPPVLDSDGSFKLASKLTVDKSRWQQGNVFSCSVMHEALHNHYTQKSLSLSPGK
notes: Positions are EU index; also called combination 11 chain B
For the protein B2, the “VhH-Fc homodimer (%)” value in [4], in [5] and in [6] was 0% each time.

B3: ScFv-Fc fusion protein chain A with Y349C + T366W (Fc fusion)
chain: EVQLLESGGGVVQPGRSLRLSCIASGFTFSSYPMTWVRQAPGKGLEWVASISYDGSYKYKADSMKGRLTISRDNSKNTLYLEMNSLTAEDTAVYYCARTAFFNAYDFWGQGTLVTVSSASTKGPSVGGGGSGGGGSEIVMTQSPATLSVSPGERATLSCRASQSVRSNLAWYQQKPGQAPRLLIYAASTRATGIPARFSGSGSGTEFTLTISSLQSEDFAVYYCQQYNEWFRTSGQGTKVEIKRDKTHTCPPCPAPELLGGPSVFLFPPKPKDTLMISRTPEVTCVVVDVSHENPEVKFNWYVDGVEVHNAKTKPREEQYNSTYRVVSVLTVLHQDWLNGKEYKCKVSNKALPAPIEKTISKAKGQPREPQVCTLPPSRDELTKNQVSLWCLVKGFYPSDIAVEWESNGQPENNYKTTPPVLDSDGSFFLYSKLTVDKSRWQQGNVFSCSVMHEALHNHYTQKSLSLSPGK
notes: also called combination KH chain A; combination 1 chain A
Regarding B3, the “ScFv-Fc homodimer (%)” value was found to be 52% in [7] and 10% in series [8].

B4: ScFv-Fc fusion protein chain A with T366W + K409A + K392D (Fc fusion)
chain: EVQLLESGGGVVQPGRSLRLSCIASGFTFSSYPMTWVRQAPGKGLEWVASISYDGSYKYKADSMKGRLTISRDNSKNTLYLEMNSLTAEDTAVYYCARTAFFNAYDFWGQGTLVTVSSASTKGPSVGGGGSGGGGSEIVMTQSPATLSVSPGERATLSCRASQSVRSNLAWYQQKPGQAPRLLIYAASTRATGIPARFSGSGSGTEFTLTISSLQSEDFAVYYCQQYNEWFRTSGQGTKVEIKRDKTHTCPPCPAPELLGGPSVFLFPPKPKDTLMISRTPEVTCVVVDVSHENPEVKFNWYVDGVEVHNAKTKPREEQYNSTYRVVSVLTVLHQDWLNGKEYKCKVSNKALPAPIEKTISKAKGQPREPQVYTLPPSRDELTKNQVSLWCLVKGFYPSDIAVEWESNGQPENNYDTTPPVLDSDGSFFLYSALTVDKSRWQQGNVFSCSVMHEALHNHYTQKSLSLSPGK
notes: Positions are EU index; also called combination 10 chain A
Consider B4, for which the “ScFv-Fc homodimer (%)” value in series [4] is 39%; in [5] it was under 1%; in [6] it was 7%.

B5: ScFv-Fc fusion protein chain A with T366W + K409A (Fc fusion)
chain: EVQLLESGGGVVQPGRSLRLSCIASGFTFSSYPMTWVRQAPGKGLEWVASISYDGSYKYKADSMKGRLTISRDNSKNTLYLEMNSLTAEDTAVYYCARTAFFNAYDFWGQGTLVTVSSASTKGPSVGGGGSGGGGSEIVMTQSPATLSVSPGERATLSCRASQSVRSNLAWYQQKPGQAPRLLIYAASTRATGIPARFSGSGSGTEFTLTISSLQSEDFAVYYCQQYNEWFRTSGQGTKVEIKRDKTHTCPPCPAPELLGGPSVFLFPPKPKDTLMISRTPEVTCVVVDVSHENPEVKFNWYVDGVEVHNAKTKPREEQYNSTYRVVSVLTVLHQDWLNGKEYKCKVSNKALPAPIEKTISKAKGQPREPQVYTLPPSRDELTKNQVSLWCLVKGFYPSDIAVEWESNGQPENNYKTTPPVLDSDGSFFLYSALTVDKSRWQQGNVFSCSVMHEALHNHYTQKSLSLSPGK
notes: Positions are EU index; also called combination 11 chain A
Take B5: the “ScFv-Fc homodimer (%)” value in series [4] came out at 52%; in series [5] it was 11%; in [6] it was 15%.

B6: ScFv-Fc fusion protein chain A with T366W + F405K + D399S (Fc fusion)
chain: EVQLLESGGGVVQPGRSLRLSCIASGFTFSSYPMTWVRQAPGKGLEWVASISYDGSYKYKADSMKGRLTISRDNSKNTLYLEMNSLTAEDTAVYYCARTAFFNAYDFWGQGTLVTVSSASTKGPSVGGGGSGGGGSEIVMTQSPATLSVSPGERATLSCRASQSVRSNLAWYQQKPGQAPRLLIYAASTRATGIPARFSGSGSGTEFTLTISSLQSEDFAVYYCQQYNEWFRTSGQGTKVEIKRDKTHTCPPCPAPELLGGPSVFLFPPKPKDTLMISRTPEVTCVVVDVSHENPEVKFNWYVDGVEVHNAKTKPREEQYNSTYRVVSVLTVLHQDWLNGKEYKCKVSNKALPAPIEKTISKAKGQPREPQVYTLPPSRDELTKNQVSLWCLVKGFYPSDIAVEWESNGQPENNYKTTPPVLSSDGSFKLYSKLTVDKSRWQQGNVFSCSVMHEALHNHYTQKSLSLSPGK
notes: Positions are EU index; also called combination 15 chain A
As to B6, the “ScFv-Fc homodimer (%)” value is under 1% in [1], 28% in series [2] and 6% in [3].

B7: ScFv-Fc fusion protein chain A with T366W + F405K + Y349D + S354D (Fc fusion)
chain: EVQLLESGGGVVQPGRSLRLSCIASGFTFSSYPMTWVRQAPGKGLEWVASISYDGSYKYKADSMKGRLTISRDNSKNTLYLEMNSLTAEDTAVYYCARTAFFNAYDFWGQGTLVTVSSASTKGPSVGGGGSGGGGSEIVMTQSPATLSVSPGERATLSCRASQSVRSNLAWYQQKPGQAPRLLIYAASTRATGIPARFSGSGSGTEFTLTISSLQSEDFAVYYCQQYNEWFRTSGQGTKVEIKRDKTHTCPPCPAPELLGGPSVFLFPPKPKDTLMISRTPEVTCVVVDVSHENPEVKFNWYVDGVEVHNAKTKPREEQYNSTYRVVSVLTVLHQDWLNGKEYKCKVSNKALPAPIEKTISKAKGQPREPQVDTLPPDRDELTKNQVSLWCLVKGFYPSDIAVEWESNGQPENNYKTTPPVLDSDGSFKLYSKLTVDKSRWQQGNVFSCSVMHEALHNHYTQKSLSLSPGK
notes: Positions are EU index; also called combination 18 chain A
Consider B7, for which the “ScFv-Fc homodimer (%)” value is 5% in series [1], 29% in series [2] and 9% in series [3].

B8: ScFv-Fc fusion protein chain A with T366W + F405K (Fc fusion)
chain: EVQLLESGGGVVQPGRSLRLSCIASGFTFSSYPMTWVRQAPGKGLEWVASISYDGSYKYKADSMKGRLTISRDNSKNTLYLEMNSLTAEDTAVYYCARTAFFNAYDFWGQGTLVTVSSASTKGPSVGGGGSGGGGSEIVMTQSPATLSVSPGERATLSCRASQSVRSNLAWYQQKPGQAPRLLIYAASTRATGIPARFSGSGSGTEFTLTISSLQSEDFAVYYCQQYNEWFRTSGQGTKVEIKRDKTHTCPPCPAPELLGGPSVFLFPPKPKDTLMISRTPEVTCVVVDVSHENPEVKFNWYVDGVEVHNAKTKPREEQYNSTYRVVSVLTVLHQDWLNGKEYKCKVSNKALPAPIEKTISKAKGQPREPQVYTLPPSRDELTKNQVSLWCLVKGFYPSDIAVEWESNGQPENNYKTTPPVLDSDGSFKLYSKLTVDKSRWQQGNVFSCSVMHEALHNHYTQKSLSLSPGK
notes: Positions are EU index; also called combination 16 chain A
In the case of B8, the “ScFv-Fc homodimer (%)” value in series [1] was determined as 3%; in series [2], 23%; in series [3] it was 5%.

B9: ScFv-Fc fusion protein chain A with Y349C + T366W + K409E (Fc fusion)
chain: EVQLLESGGGVVQPGRSLRLSCIASGFTFSSYPMTWVRQAPGKGLEWVASISYDGSYKYKADSMKGRLTISRDNSKNTLYLEMNSLTAEDTAVYYCARTAFFNAYDFWGQGTLVTVSSASTKGPSVGGGGSGGGGSEIVMTQSPATLSVSPGERATLSCRASQSVRSNLAWYQQKPGQAPRLLIYAASTRATGIPARFSGSGSGTEFTLTISSLQSEDFAVYYCQQYNEWFRTSGQGTKVEIKRDKTHTCPPCPAPELLGGPSVFLFPPKPKDTLMISRTPEVTCVVVDVSHENPEVKFNWYVDGVEVHNAKTKPREEQYNSTYRVVSVLTVLHQDWLNGKEYKCKVSNKALPAPIEKTISKAKGQPREPQVCTLPPSRDELTKNQVSLWCLVKGFYPSDIAVEWESNGQPENNYKTTPPVLDSDGSFFLYSELTVDKSRWQQGNVFSCSVMHEALHNHYTQKSLSLSPGK
notes: Positions are EU index; also called combination 3 chain A
For the protein B9, the “ScFv-Fc homodimer (%)” value in series [9] came to 25%.

B10: ScFv-Fc fusion protein chain A with T366W + K409A + Y349D + S354D (Fc fusion)
chain: EVQLLESGGGVVQPGRSLRLSCIASGFTFSSYPMTWVRQAPGKGLEWVASISYDGSYKYKADSMKGRLTISRDNSKNTLYLEMNSLTAEDTAVYYCARTAFFNAYDFWGQGTLVTVSSASTKGPSVGGGGSGGGGSEIVMTQSPATLSVSPGERATLSCRASQSVRSNLAWYQQKPGQAPRLLIYAASTRATGIPARFSGSGSGTEFTLTISSLQSEDFAVYYCQQYNEWFRTSGQGTKVEIKRDKTHTCPPCPAPELLGGPSVFLFPPKPKDTLMISRTPEVTCVVVDVSHENPEVKFNWYVDGVEVHNAKTKPREEQYNSTYRVVSVLTVLHQDWLNGKEYKCKVSNKALPAPIEKTISKAKGQPREPQVDTLPPDRDELTKNQVSLWCLVKGFYPSDIAVEWESNGQPENNYKTTPPVLDSDGSFFLYSALTVDKSRWQQGNVFSCSVMHEALHNHYTQKSLSLSPGK
notes: Positions are EU index; also called combination 13 chain A
As for B10, the “ScFv-Fc homodimer (%)” value was 37% in series [4], 2% in series [5] and 10% in [6].
